Reference: patent US12187807B2, “Antibody molecules to C5AR1 and uses thereof” (Visterra, Inc., priority 2020, dated 2025)
Substitutions are numbered along the chain they refer to.

How the values were obtained:
Experiment in all cases: Alanine scanning / mutagenesis epitope mapping of C5aR1
Type in all cases: binding
[1] = biological target: T1, C5aR1 mutants (N-terminus, ECL1, ECL2, ECL3) (Homo sapiens, UniProt P21730, E179A/K279N); details: E179A
T1 sequence (P21730 with tags, fused parts or gaps E179A/K279N): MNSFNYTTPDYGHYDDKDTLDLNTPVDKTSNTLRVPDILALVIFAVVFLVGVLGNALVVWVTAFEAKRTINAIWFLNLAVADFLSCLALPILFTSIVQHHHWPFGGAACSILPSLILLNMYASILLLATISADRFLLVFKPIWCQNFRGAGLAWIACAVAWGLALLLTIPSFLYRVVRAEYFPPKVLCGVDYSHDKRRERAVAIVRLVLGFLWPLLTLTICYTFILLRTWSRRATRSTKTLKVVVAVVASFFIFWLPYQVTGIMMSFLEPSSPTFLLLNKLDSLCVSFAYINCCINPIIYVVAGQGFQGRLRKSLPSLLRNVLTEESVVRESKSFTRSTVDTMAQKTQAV
Description: (§1) FIG. 5A is a diagram showing the results of alanine scanning mutations of site I interaction with mab 583. The N-terminal amino acid sequence of C5aR1 is listed across the top of the figure. Glycosylation sites are indicated by rectangle boxes. The only natural glycosylation site is at position N5. The other sites were introduced by mutagenesis. Mutations that abolished clone 583 binding are circled. The sulfated tyrosines at positions 11 and 14 are marked with a star sign. FIG. 5B is a diagram showing results of alanine scanning mutations of site I interaction with mab 66. Mutations that abolished clone 66 binding are circled. The sulfated tyrosines at positions 11 and 14 are marked with a star sign.
(§2) Ala substitutions of T8 & D10 moderately reduces its affinity while Y11 & D15 abolishes mAb binding. […] N-glycosylation of at N17 or D17P also abolishes mAb binding. N5 glycan is tolerated but a tandem glycosylation (N5 & N17) is not tolerated. mAb core epitopes are T8-G12 but nature of AA present in D15-D18 influence its binding. […] The core epitope appears to be located near T8-G12, with additional contributions from D15-D18.
(§3) Clone 66 was previously characterized as a site I binder and its binding is dependent on tyrosine sulfation at positions 11Y and/or 14Y. […] It should be noted that the only the only non-human species to retain clone 66 binding was baboon, which is the only NHP that retains the DYGHY motif.
(§4) However, it was unknown if additional contacts were made with ECL1 or ECL3. […] The data is highlighted in FIG. 5C-5E.
(§5) The core epitope of clone 11 is from E180-P183; the core epitope of clone 329 is from E180-P184; and the core epitope of clone 336 is from R178-P183. […] The data for clones 11, 329, and 336 is highlighted in FIG. 5F.

[2] = biological target: T2, C5aR1 mutants (N-terminus, ECL1, ECL2, ECL3) (Homo sapiens, UniProt P21730, G12E/K279N); details: G12E (as in cyno and rhesus)
T2 sequence (P21730 with tags, fused parts or gaps G12E/K279N): T1 sequence (P21730 with tags, fused parts or gaps E179A/K279N) with G12E, A179E
Description: as §1, §2, §3, §4, §5

[3] = biological target: T3, C5aR1 mutants (N-terminus, ECL1, ECL2, ECL3) (Homo sapiens, UniProt P21730, K279N/T8A); details: T8A
T3 sequence (P21730 with tags, fused parts or gaps T8A/K279N): T1 sequence (P21730 with tags, fused parts or gaps E179A/K279N) with T8A, A179E
Description: as §1, §2, §3, §4, §5

[4] = biological target: T4, C5aR1 mutants (N-terminus, ECL1, ECL2, ECL3) (Homo sapiens, UniProt P21730, K17N/K279N); details: insertion of a glycan at K17N
T4 sequence (P21730 with tags, fused parts or gaps K17N/K279N): T1 sequence (P21730 with tags, fused parts or gaps E179A/K279N) with K17N, A179E
Description: as §1, §2, §3, §4, §5

[5] = biological target: T5, C5aR1 mutants (N-terminus, ECL1, ECL2, ECL3) (Homo sapiens, UniProt P21730, D10A/K279N); details: D10A
T5 sequence (P21730 with tags, fused parts or gaps D10A/K279N): T1 sequence (P21730 with tags, fused parts or gaps E179A/K279N) with D10A, A179E
Description: as §1, §2, §3, §4, §5

B1: clone 329: anti-C5aR1 Site II antibody; VH SEQ ID NO: 492, VL SEQ ID NO: 552 (antibody, V domains shown)
VH: QVQLQQSGAELTKPGASVKLSCKASGYTFTNYWMHWVKQRPGQGLEWIGYLNPSSGYTKYNQKFKDKATLTADKSSSTAYMQLNSLTYEDSAVYYCTRSGGDNYGNPYYFDRWGQGTTVTVSS
VL: DVVMTQTPLSLTVSLGDQASISCRSSQSLVHSNGNTYLHWYLQKPGQSPKFLIYKVSNRFSGVPDRFSGSGSGTDFRLKISRVEAEDLGVYFCSQSTLVPLTFGAGTKLEIK
binding to C5aR1 mutant [1]: did not reduce antibody affinity

B2: clone 66: anti-C5aR1 Site I antibody; VH SEQ ID NO: 483, VL SEQ ID NO: 543 (antibody, V domains shown)
VH: QVQLQQSDAELVKPGASVKISCKASGYTFIDHAIHWVKQRPEQGLEWIGYISPGNGEIKYNEKFKAKATLTADKSSSAAYMQLNSLTSADSAVYFCKRALFYYTGKYQPMDYWGQGTTVTDSS
VL: DIVMTQSQKFMSTTAGDRVSITCKASQNVGSAVVWYQQKPGRSPKLLIYSSSIRYTGVPDRFTGSGSGTDFTLTINSVQSEDLADYFCQQYNSFPLTFGAGTKLEIK
binding to C5aR1 mutant [2]: abolishes binding

B3: clone 583: anti-C5aR1 Site I antibody; VH SEQ ID NO: 536, VL SEQ ID NO: 595 (antibody, V domains shown)
VH: EVQLVESGGGLVKPGGSLKLSCAASGFTFNAYAMSWVRQTPEKRLEWVASISTGGNTYCPDSVKDRFTVSRDNVRNILYLQMSSLRSEDTAMYYCTRGYQRFSGFAYWGQGTLVTVS
VL: DVVMTQTPLSPPVSLGYQASISCRSSQSLVHSNGNTYLNWYLQKPGQSPKLLIYKVSNRLSGVPDRFSGSGSGTDFTLKISRVETEDLGVYFCSQSTHVPYTFGGGTKLEIK
binding to C5aR1 mutant [3]: moderately reduce binding | binding to C5aR1 mutant [4]: abolishes binding | binding to C5aR1 mutant [5]: moderately reduce binding
